The source of these data is publication PMC5462994.

In experiment [1] the target is Recombinant M.tb H37Rv GAPDH, wild type (Mycobacterium tuberculosis H37Rv) (UniProt P9WN83). Put plainly: ELISA; solid phase binding assay: 2 ug/well GAPDH coated on polystyrene wells in PBS pH 7.4; 7.5-1,000 nM biotinylated Lf in PBS with 1% fish skin gelatin, 25°C, 2 h; detected with anti-biotin; one-site specific binding fit.
Experiment [2] deals with Transferrin (Homo sapiens) (UniProt P02787). Conditions: cited from earlier work.
UniProt P02787, sequence (P02787 20-698): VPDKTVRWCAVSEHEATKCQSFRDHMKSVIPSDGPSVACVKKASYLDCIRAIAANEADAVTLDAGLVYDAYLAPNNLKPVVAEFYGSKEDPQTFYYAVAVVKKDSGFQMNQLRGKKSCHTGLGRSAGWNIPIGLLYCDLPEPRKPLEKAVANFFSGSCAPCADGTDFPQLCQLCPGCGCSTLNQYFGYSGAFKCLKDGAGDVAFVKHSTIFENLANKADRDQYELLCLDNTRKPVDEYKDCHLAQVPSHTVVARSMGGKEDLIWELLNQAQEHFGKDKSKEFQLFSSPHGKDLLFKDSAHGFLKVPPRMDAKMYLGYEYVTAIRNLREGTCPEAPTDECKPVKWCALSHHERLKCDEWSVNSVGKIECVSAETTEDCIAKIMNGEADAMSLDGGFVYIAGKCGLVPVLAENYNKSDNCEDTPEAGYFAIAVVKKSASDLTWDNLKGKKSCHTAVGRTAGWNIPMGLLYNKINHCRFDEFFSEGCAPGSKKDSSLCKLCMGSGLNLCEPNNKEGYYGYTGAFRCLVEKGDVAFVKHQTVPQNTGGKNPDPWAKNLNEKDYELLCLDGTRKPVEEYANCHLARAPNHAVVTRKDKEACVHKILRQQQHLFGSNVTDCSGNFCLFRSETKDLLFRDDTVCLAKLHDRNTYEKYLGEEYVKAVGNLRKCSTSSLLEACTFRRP

GAPDH, sequence (P9WN83 whole entry): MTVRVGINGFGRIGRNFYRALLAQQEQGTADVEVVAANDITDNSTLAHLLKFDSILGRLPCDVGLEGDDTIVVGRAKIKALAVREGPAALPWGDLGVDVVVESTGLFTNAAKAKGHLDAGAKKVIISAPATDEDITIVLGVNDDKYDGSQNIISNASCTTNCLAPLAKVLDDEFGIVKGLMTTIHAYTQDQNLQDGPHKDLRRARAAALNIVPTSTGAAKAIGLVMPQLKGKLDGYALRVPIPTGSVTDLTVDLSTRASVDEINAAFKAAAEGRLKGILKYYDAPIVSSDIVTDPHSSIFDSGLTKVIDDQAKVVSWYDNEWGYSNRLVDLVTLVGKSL

Take “Biotinylated human lactoferrin (natural protein)”: the Kd in experiment [1] was 31.7 nM. Consider GAPDH (from UniProt P9WN83), for which, in experiment [2], the Kd is 160 nM.
